From the nanobody polyreactivity screen of Harvey et al. (2022) come the findings set out here.

The data set in a line: yeast display, Sf9 membrane polyspecificity reagent, FACS + sequencing; frameworks hold sequencing errors. The essentials:
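A nanobody's polyreactivity label depends on the gate it was sorted from. Yeast display cells were stained with 10% biotinylated, detergent-solubilized Sf9 membrane reagent for 1 hour at 4 °C, enriched on streptavidin microbeads and sorted by FACS. The low and high (top ~1%) gates were set on anti-HA fluorescence for expression and streptavidin fluorescence for reagent binding.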
Take “QVQLEESGGGLVQAGGSLRLTCAGSGSIFYVYPMGWYRPAPGKERELVAAIYSGASTYYADSVKGRFTISRDNAKNTVYLQKNSLKPEDTAVYYCAAYVFFQTYFSYYVEGDFWGQGTQVTVSS”: the “polyreactivity (PSR sort gate)” value is reported as “low polyreactivity”.
On to “QVQLEESGGGLVQAGGSLRLTGAASGSTVVSYAMGWYRQERGKEWELVAAISSSSGRTRYADSVKGSFTISRDNAKNTVYLQMNSLKPEDTAVYYCAARRQSTRPGFYYWGQGTQVTVSS”, for which the “polyreactivity (PSR sort gate)” value is “high polyreactivity”.
Under “QVQLEESGGGLVQAGGSLRVSCAPSGRTFGWYTMGWYRQAPGKERELVAVISSTGGRTYYADSVKGRFTISRDNAKNTVYLQMNSLKPEDTAVYYCAAEYVSAKWESGYWGQGTQVTVSS” stands “low polyreactivity”; under “QVQLEESGGGLVQAGGSLSLSCAASGNFFVLYAMGCYRQAPGKERELVASITSDGITYYADSVKGRFTMSRDNAKNTVYLQMNSLKPEDTAVYYCAVDRSYRYLPRGDYWGQGTQVTVSS”, “low polyreactivity”; under “QVQLEESGGGLVQAGGSLSLSCDASGRNFEGYAMGWYRQAPGKERELVAAINWSGGTTHYADSVKGRFTISRDNANNTVYLQINSLKPADTAVYYCAVRGRTPYDYWGQGTQVTVSS”, “low polyreactivity”.
Consider “QVQLEESGGGLVQAGGTLRLSCAACGRTFYRYAMGWYRKAPGKERQLVAAISASGGITYYADSVKGRFTISRDNAKNNVYLQMNSLKADDTAVYYCAVRYNPWYGNYDYWGQGTQVTVSS”, for which the “polyreactivity (PSR sort gate)” value was “high polyreactivity”.
For “QVQLEESGGGLVQAGGTLRLSCAASGRIFGWYAMGWYRQPPGKERELVAAISSGGRTNYADSVKGRFTISRDNAKNTVYLQMNSLKPEDTAVYYCNARSTYLPYKFGYDYWGQGTQVTVSS”, the “polyreactivity (PSR sort gate)” value is “low polyreactivity”.
Under “QVQLEESGGGLVQAGGTLRLSCAASGSIFRNYAMGWYRQAPGKEWQLVAAISRSGTSTYYADSVKGRFTISRDNAKNTVYFQMNSLKPEDYAVYYCNARTYVAVGFNYWGQGTQVTVSS” stands “high polyreactivity”; under “QVQLEESGGGLVQAGVSLRLSCAASGIIFHFNDMVWYRQAPGKERELLAAIDSTGSTNYADSVKGRFTISRDNAKNTVYLQMNSLKPEDTAVYYCAVLNHRVDSVLTRYYYWGQGTQVTVSS”, “low polyreactivity”; under “QVQLEESGGGLVQAGVSLRLSCAASGRIFSSNAMGWYRQAPGKERELVAAITYSAGSTYYAVSVKGRFTISRDNAKNTVYLQMNSLKPEDTAVYYCAADSYYDRTIQFEFYARTYDYWGQGTQVTVSS”, “low polyreactivity”.
Turning to “QVQLEESGGGLVQEGGSLRLSCAASGSIFGGYVMGWYRQAPGKERELVAVITKRGGSTYYADSVKGRFTISRDNAKNTVYFQMNSLKPEDTAVYYCNKDGYYASVLGYDYWGQGTQVTVSS”, the “polyreactivity (PSR sort gate)” value is “high polyreactivity”.
On to “QVQLEESGGGLVQGGCSLRLSCAGSGSIFIQYDMGWYRQAPVIERELVATIRSGDSTTYADSVKGRFTISRDNAKNTVYLQMNSLKPEDTAVYYCAKDYRLDYDYDYWGQGTQVTVSS”, for which the “polyreactivity (PSR sort gate)” value is “low polyreactivity”.
As for “QVQLEESGGGVVQAGGSLRISCAASGIIFYRYTMGWYRQAPGKERELVAAIASRGGSTYYADSVKGRFTISRDNAKNTVYLQMNSLKPEDTAVYYCAAGARYGKVRYGYWGQGTQVTVSS”, the “polyreactivity (PSR sort gate)” value is “high polyreactivity”.
As for “QVQLEESGGGVVQAGGSLRLSCAASGSILGISAMGWYRPAPGKERALVAAIRTSSGSTYYADSVKVRFTISRDNAKNTVYFQMNSLKPEDTAVYSCAAYAFRYTPYYSWGQGTQVTVSS”, the “polyreactivity (PSR sort gate)” value is “high polyreactivity”.
On to “QVQLEESGGRLVQAGGSLRLSCAASGGIFADYAMGWDRPAPGKERELVADISARGGSTYYADSVKGRFTISRDNAKNTVYLQMNSLKPEDTAVYYCAADALGYDYYYWGQGTQVTVSS”, for which the “polyreactivity (PSR sort gate)” value is on record as “low polyreactivity”.
Take “QVQLEESGRGLVQAGVSLRLSSAASGNTFVTNTMVWYRQAPGKERELVAAIDSGGDSYYADSVKGRFTISRDNAKNTVYFQMNSLKPEDTAVYYCAAVGDRNYFSNRRYEYWGQGTQVTVSS”: the “polyreactivity (PSR sort gate)” value is “low polyreactivity”.
“QVQLEESGVGLVQAGGSLRLRCAASGSTVTDNTKGWYRQAPGKERELVAPISGVGSTYYSESVKGRFTISRDNAKNTVYFQMHSLKPEDTAVYYCNVYWGPFYRSGDKYGYWGQGTQVTVSS”: the “polyreactivity (PSR sort gate)” value is recorded as “low polyreactivity”.
As for “QVQLEESGVGLVQAGGSLRLSWAASGFIIYINTMGWYRQAPGKERELVAAISQSGVGTSYADSVKGRFTISRDNAKNTVYLQMNRLKPEDTAVYYCATDCARSDVVDRFDYWGQGTQVTVSS”, the “polyreactivity (PSR sort gate)” value is “low polyreactivity”.
For the sequence “QVQLEESVGGLVQAGGSLRLSCAASGRIFVRNAMGWYRQAPGKERELVATITSIGGRTYYADSVKGRFTISRDNAKNTVYLQMNSLKPEDTAVYYCAAYNTQSYPAYLRYDYWGQGTQVTVSS”, the “polyreactivity (PSR sort gate)” value is recorded as “low polyreactivity”.
As for “QVQLEETGGGLVQAGASLRISCAASGSIMGQNGMGWYRHAPGKEREFVAGIGYGTTTNYADSVKGRFTTSRDNAKNTVYLQMISMKPEDTAVYYCAAYQGNGYEFYYWGQGTQVTVRS”, the “polyreactivity (PSR sort gate)” value is reported as “low polyreactivity”.
Regarding “QVQLEETRGGLVQAGGSLRLSCAASGLFFGTYAMGWYRQPPGKEWELVAGITSSGGTTYYADSVKGRFTISRDNAKNTVYLQMNSLKPEDTAVYYCNARAVQSRYGYYYWGQGTQVTVSS”, the “polyreactivity (PSR sort gate)” value was “low polyreactivity”.
“QVQLEVSAGGLVQAGGSLRLSCAASGSTFGYYAMGWYRQAPGKEWELVAAITSGASTNYSDSVKGRFTISRDNAKNSVYLQMNSLKPEDTAVYYCAAGFQTRTPLNEFDYWGQGTQVTVSS”: the “polyreactivity (PSR sort gate)” value is “low polyreactivity”.
Then “QVQLGDSGGGLVQAGGSLRLSCAASGSIFSKYAMGWSRKAPGKERELVATISSSVGSTYYADSVKGRFTISRDNAKNSVYLQMNSLKPEDTAVYYCAARPDYEYGTHYRGGYWGQGTQVTVSS”, with “low polyreactivity”; and “QVQLGESGAGLVQAGGSLRLSCAASGRIFLIKAMGCDRQAPGKERELVAAIRRSVGSTYYADSVKGRFTISRDNAKNTVYLQMNSLKPEDTAVYYCATRDYYTYTGRTRYYYWGQGTQVTVSS”, with “high polyreactivity”.
Regarding “QVQLGESGGCLVQAGGSLRLSCAASGSPFYTYAMGWYRQAPGKERELVAASSFGGGSTYADSVKGRFTISRDNAKNTLYLQMNSLKPDDTAGYYCNTDLYLYGWYPREVQQYAGGDYWGQGTQVTVSS”, the “polyreactivity (PSR sort gate)” value is reported as “low polyreactivity”.
With “QVQLGESGGGLVEAGGSLRLSCAASGSTCKFYVMGWYRQAPGKERELVAAIAIGGSTNYADSVKGRFTISRDNAKNTVSVQMNSLKPEDTAVYYCAAELLQIHYYYVYLSPSFKCDYWGQGTQVTGSS”, the “polyreactivity (PSR sort gate)” value is given as “low polyreactivity”.
For “QVQLGESGGGLVLAGGSLRLSCAASGSIFTHYAIGWYRQAPGKERELVAAISWSGGSTYYADSVKGRFTISRDNAQNTVYLQMNSLKPEDTAVYYCAALYYSRLSVSGEYDYWGQGTQVTVSS”, the “polyreactivity (PSR sort gate)” value is reported as “high polyreactivity”.
Then “QVQLGESGGGLVQAGGSLRISCAASGSILIANAMGWYRQAPGKERELVAPISRSGSTTYYADSVKGRFTISRDNAKNTVYLQMNSLKPEDTAVYYCNARYSLHSYYWFIYDSWGQGTQVTGSS”, with “low polyreactivity”.
As for “QVQLGESGGGLVQAGGSLRLICAASGFIVTTYVMGWYRQAPGKERELVAVISRSGGRTYYADSVKGRFTISRDNAKNTVYLQMNSLKPEDTAVYYCNVDIPVLSHIEYYYWGQGTQVTVSS”, the “polyreactivity (PSR sort gate)” value is given as “low polyreactivity”.
On to “QVQLGESGGGLVQAGGSLRLRCAASGSTFEFYAMGWYRQAPGKERELVASITSSSGPTYYADSVKGRFTISRDNAKNTVYLQMNSLKPEDTAVFYCAKRPIRYYHLLRGNYWGQGTQVTVSS”, for which the “polyreactivity (PSR sort gate)” value is “low polyreactivity”.
With “QVQLGESGGGLVQAGGSLRLSCAASGFTFTHYSMGWYRQAPGKERELVAAISTSGGSTYYADSVKGRFTISRDTAKNSVYLQMNSLKPEDTAVYYCAARRDGCVLWGYYYWGQGTQVTVSS”, the “polyreactivity (PSR sort gate)” value is “low polyreactivity”.
As to “QVQLGESGGGLVQAGGSLRLSCAASGGTYTHYGMGWYRQATGKERELVAAITWTASSTYYADSVKGRFTISRDNAKNTVYLQMNSLKPEDTAVYYCATSYYYWGHTYDYWGQGTQVTVSS”, the “polyreactivity (PSR sort gate)” value is “low polyreactivity”.
Regarding “QVQLGESGGGLVQAGGSLRLSCAASGIIFRRYAMGWYRQAPGKERELVAVISSGGSTNYADSVKGRFTISRDNAKNTVYLQMNSLKPEDTAVYYCAAPSQSRGYYYWGQGTQVTVSS”, the “polyreactivity (PSR sort gate)” value is “high polyreactivity”.
“QVQLGESGGGLVQAGGSLRLSCAASGIIIFLYAMGWYRPAPGKEREFVAAINYSSGSTYYADSVKGRFTISRDNAKNTVYLQMNSLKPEDTAVYYCAADPVHRYPGTGGYWGQGTQVTVSS”: the “polyreactivity (PSR sort gate)” value is “low polyreactivity”.
“QVQLGESGGGLVQAGGSLRLSCAASGLTFPVYPMGWYRQAPGKEREFVTAITYNGGRTYYADSVKGRFTISRDNAKNTVYLQMNSLKPEDTAVYYCNAARSRGANLVPPYRLYYWGQGTQVTVSS”: the “polyreactivity (PSR sort gate)” value was “low polyreactivity”.
For “QVQLGESGGGLVQAGGSLRLSCAASGRIFAYYTMGWYRQAPGKERELVAAITSGGSTYYADSVKGRFTISRDYAKNTVYLQMNSLKPEATAVYYCAAGWYTPVYLYYYWGQGTQVTVSS”, the “polyreactivity (PSR sort gate)” value is reported as “high polyreactivity”.
With “QVQLGESGGGLVQAGGSLRLSCAASGRIIPYYAMGWYRQAPGKERELVAAISLSGGSTYYADSVKGRFTISRDIAKNTVYLQMNSLKPEDTAVYYCNAVASTYGYYWYPGLGYDYWGQGTQVTVSS”, the “polyreactivity (PSR sort gate)” value is recorded as “low polyreactivity”.
“QVQLGESGGGLVQAGGSLRLSCAASGRILAKYAMGWSRQAPWKEREFVAAISYSGGSTYYADSVKGRFTISRDNAKNTVYLQMNSLKPEDTAVYYCAARYTFDRWKFGYWGQGTQVTVSS”: the “polyreactivity (PSR sort gate)” value is “high polyreactivity”.
With “QVQLGESGGGLVQAGGSLRLSCAASGRILSVYVMGWYRQAPGKERELVAAIRRGGYTYYADSVKGRFTISRDNAKNTVYLQMNSLKQEDTAVYYCNARQRPPPYYYWGQGTQLTVSS”, the “polyreactivity (PSR sort gate)” value is listed as “high polyreactivity”.
Take “QVQLGESGGGLVQAGGSLRLSCAASGRTFIYDAMGWYRQAPGKERELVAGISRNGGRTYYADSVKGRFTISRDNAKNTVYLKMNSLKPEDTAVYYCIARTYSYRGYNYWGQGTQVTVSS”: the “polyreactivity (PSR sort gate)” value is on record as “high polyreactivity”.
